Where no end group is shown, it is not given here. The star is where a group is joined. C6spacer = spacer between biotin and the peptide; Biotin = O=C1N[C@H]2[C@H](CS[C@H]2CCCCC(=O)*)N1
Columns and labels:
[1] = substrate: CC(C)C[C@H](NC(=O)[C@H](CC(N)=O)NC(=O)[C@H](CO)NC(=O)[C@@H](N)CC(C)C)C(=O)N[C@@H](Cc1ccc(O)cc1)C(=O)N[C@@H](Cc1c[nH]cn1)C(=O)N[C@@H](CCC(N)=O)C(=O)NCC(=O)N[C@@H](CCCCN)C(=O)N[C@@H](Cc1ccccc1)C(=O)N[C@@H](CC(C)C)C(=O)N[C@@H](CCC(N)=O)C(=O)N[C@H](C(=O)N[C@@H](Cc1ccccc1)C(=O)N[C@@H](CS)C(=O)NCC(=O)N[C@@H](CO)C(=O)N1CCC[C@H]1C(=O)N[C@@H](CC(C)C)C(=O)N[C@@H](Cc1ccc(O)cc1)C(=O)N[C@@H](CCCNC(=N)N)C(=O)N[C@@H](CCCNC(=N)N)C(=O)N[C@@H](CCCNC(=N)N)C(=O)O)[C@@H](C)O; assay: Kinetic analysis of phosphorylation of T-loop peptides by the LKB1:STRAD:MO25 complex (Example 4); assay type: biochemical; details: other: phosphorylation by LKB1 complex, nonlinear regression; pH 7.5; 30.0 °C
Procedure: FIG. 26. Identification of peptide substrates for LKB1. (A) Kinetic analysis of the phosphorylation of the indicated T-loop by the LKB1:STRAD:MO25 complex was performed. The T-loop Thr residue in each peptide is underlined and in boldface type and 3 Arg residues were added to the C-terminus of each T-loop peptide to enable their capture on phosphocellulose p81 paper. Km and Vmax values were determined from nonlinear regression. (B) An aliquot of each peptide phosphorylated by LKB1 complex was subjected to solid phase Edman sequencing and ^32P-radioactivity was measured after each cycle of Edman degradation. […] The results are expressed as the peptide kinase activity generated per mg of LKB1:STRAD:MO25 added to the assay. […]
Measurement of activation of AMPK-related kinases AMPKα1 catalytic subunit and AMPK-related kinases was measured following their phosphorylation with LKB1 as follows. […] After incubation at 30° C. for the times indicated in the figure legend, AMPKα1 catalytic domain or AMPK-related kinase activities were determined by adding 30 μl of 5 mM magnesium acetate, 0.1 mM [γ-^32P]-ATP (300 cpm/pmol) and 200 μM AMARA peptide (AMARAASAAALARRR (Dale et al., 1995)) as substrate. […] Kinetic data was analysed according to the Michaelis-Menten relationship by non-linear regression using the computer program GraphPad Prism (GraphPad Software Inc, San Diego, USA). […]

[2] = tested on: T1, BRSK2 MASLQVGDSLLETSCGSPHYRRR
T1 sequence: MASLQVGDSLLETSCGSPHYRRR

[3] = tested on: T2, LKBtide peptide (NUAK2 T-loop peptide)
T2 sequence: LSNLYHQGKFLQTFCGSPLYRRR

[4] = tested on: T3, MARK3 FSNEFTVGGKLDTFCGSPPYRRR
T3 sequence: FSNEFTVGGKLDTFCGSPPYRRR

[5] = tested on: T4, MELK AKPKGNKDYHLQTCCGSLAYRRR
T4 sequence: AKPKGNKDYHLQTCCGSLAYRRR

[6] = tested on: T5, SIK FGNFYKSGEPLSTWCGSPPYRRR
T5 sequence: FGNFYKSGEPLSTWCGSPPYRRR

[7] = tested on: peptide derived from the T-loop of AMPKα1 (Example 4, FIG. 26A)
[8] = tested on: T1, BRSK2 MASLQVGDSLLETSCGSPHYRRR; assay: kinetic analysis of peptide phosphorylation by the LKB1:STRAD:MO25 complex, nonlinear regression
[9] = tested on: T3, MARK3 FSNEFTVGGKLDTFCGSPPYRRR; assay: as above
[10] = tested on: T4, MELK AKPKGNKDYHLQTCCGSLAYRRR; assay: as above
[11] = tested on: T5, SIK FGNFYKSGEPLSTWCGSPPYRRR; assay: as above
[12] = target: T6, bacterially expressed MO25α (human, UniProt Q9Y376 1-341); assay: SPR (BiaCore 3000), biotinylated STRADα-C12 peptide on streptavidin chip, MO25α 6.25-3200 nM, steady-state fit
T6 construct: Expressed as GST fusion from pGEX-6T in E. coli BL21; GST tag cleaved off; also called MO25α protein (E. coli)
T6 sequence: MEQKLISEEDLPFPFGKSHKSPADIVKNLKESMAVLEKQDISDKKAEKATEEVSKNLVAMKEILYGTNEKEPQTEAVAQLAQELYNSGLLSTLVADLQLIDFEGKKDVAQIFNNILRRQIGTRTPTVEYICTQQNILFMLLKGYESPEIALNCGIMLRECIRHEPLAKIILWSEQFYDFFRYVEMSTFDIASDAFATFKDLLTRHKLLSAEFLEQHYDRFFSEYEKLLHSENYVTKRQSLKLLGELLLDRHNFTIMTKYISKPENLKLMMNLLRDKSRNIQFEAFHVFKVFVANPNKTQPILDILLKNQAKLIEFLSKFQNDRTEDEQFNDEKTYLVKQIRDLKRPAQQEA
Procedure: 5 μg of the total cell lysates prior to affinity purification were also subjected to immunoblotting with anti-Myc antibody to ensure that Myc-MO25α was expressed at similar levels in each condition (lower panel). (B) 0.5 mg of the indicated cell lysates was incubated with 5 μg of an N-terminal biotinylated peptide encompassing either the C-terminal 12 residues STRADα conjugated to streptavidin-Sepharose ([…], termed STRADα-C12) or mutants of this peptide in which the indicated residues were individually mutated to Ala. Following isolation and washing of the beads, the samples were subjected to SDS-polyacrylamide gel electrophoresis and immunoblotted with an anti-MO25α antibody. (C) Binding of bacterially expressed MO25α to the indicated peptides was analysed by surface plasmon resonance BiaCore analysis as described in Materials and Methods. […] WEF-C12 corresponds to […], WEA-C12 corresponds to […], AEF-C12 corresponds to […], WAF-C12 corresponds to […], WEF-C6 corresponds to VDDWEF.
Biacore analysis. Binding was analysed in a BiaCore 3000 system (BiaCore AB, Stevenage, UK). The indicated biotinylated peptides were bound to a streptavidin-coated Sensor chip (SA) (20 response units, RU). […] Dissociation of MO25α from each peptide was monitored over a 1 min period. […]

B1: LKB1:STRAD:MO25 complex (Mus musculus) (protein)
chain: MDVADPEPLGLFSEGELMSVGMDTFIHRIDSTEVIYQPRRKRAKLIGKYLMGDLLGEGSYGKVKEVLDSETLCRRAVKILKKKKLRRIPNGEANVKKEIQLLRRLRHRNVIQLVDVLYNEEKQKMYMVMEYCVCGMQEMLDSVPEKRFPVCQAHGYFRQLIDGLEYLHSQGIVHKDIKPGNLLLTTNGTLKISDLGVAEALHPFAVDDTCRTSQGSPAFQPPEIANGLDTFSGFKVDIWSAGVTLYNITTGLYPFEGDNIYKLFENIGRGDFTIPCDCGPPLSDLLRGMLEYEPAKRFSIRQIRQHSWFRKKHPLAEALVPIPPSPDTKDRWRSMTVVPYLEDLHGRAEEEEEEDLFDIEDGIIYTQDFTVPGQVLEEEVGQNGQSHSLPKAVCVNGTEPQLSSKVKPEGRPGTANPARKVCSSNKIRRLSAC
notes: Constructs expressing the full length wild type and kinase dead mouse LKB1 have been described previously; made in house; host or cells: 293 cells, co-transfected
Km [1]: 150 µM

B2: LKB1:STRAD:MO25 complex (Example 4, FIG. 26A) (enzyme, part only; not given: STRAD and MO25 subunits, GST)
chain: MDVADPEPLGLFSEGELMSVGMDTFIHRIDSTEVIYQPRRKRAKLIGKYLMGDLLGEGSYGKVKEVLDSETLCRRAVKILKKKKLRRIPNGEANVKKEIQLLRRLRHRNVIQLVDVLYNEEKQKMYMVMEYCVCGMQEMLDSVPEKRFPVCQAHGYFRQLIDGLEYLHSQGIVHKDIKPGNLLLTTNGTLKISDLGVAEALHPFAVDDTCRTSQGSPAFQPPEIANGLDTFSGFKVDIWSAGVTLYNITTGLYPFEGDNIYKLFENIGRGDFTIPCDCGPPLSDLLRGMLEYEPAKRFSIRQIRQHSWFRKKHPLAEALVPIPPSPDTKDRWRSMTVVPYLEDLHGRAEEEEEEDLFDIEDGIIYTQDFTVPGQVLEEEVGQNGQSHSLPKAVCVNGTEPQLSSKVKPEGRPGTANPARKVCSSNKIRRLSACKQQ
Vmax of phosphorylation of the BRSK2 T-loop peptide by the complex [2]: 10.6 U/mg
Vmax/Km for the BRSK2 T-loop peptide (Vmax in U/mg, Km in mM) [2]: 26
Vmax of phosphorylation of the NUAK2 T-loop peptide by the complex [3]: 86.8 U/mg
Vmax/Km for the NUAK2 T-loop peptide (Vmax in U/mg, Km in mM) [3]: 578
Vmax of phosphorylation of the MARK3 T-loop peptide by the complex [4]: 10.2 U/mg
Vmax/Km for the MARK3 T-loop peptide (Vmax in U/mg, Km in mM) [4]: 16
Vmax of phosphorylation of the MELK T-loop peptide by the complex [5]: > 60 U/mg
Vmax of phosphorylation of the SIK T-loop peptide by the complex [6]: 63.9 U/mg
Vmax/Km for the SIK T-loop peptide (Vmax in U/mg, Km in mM) [6]: 139
Km (phosphorylation of the T-loop peptide) [7]: (Km, 1.4 mM)
Vmax of phosphorylation of the AMPK T-loop peptide by the complex [7]: 94.1 U/mg
Vmax/Km for the AMPK T-loop peptide (Vmax in U/mg, Km in mM) [7]: 67
Km [8]: 400 µM
Km [9]: 620 µM
Km [10]: > 3000 µM
Km [11]: 460 µM

B3: STRADα-C12 peptide (Biotin-C6spacer-NLEELEVDDWEF) (peptide)
peptide: {Biotin-C6spacer}-NLEELEVDDWEF
notes: also called WEF-C12; C-terminal 12 residues of STRADα
Kd [12]: 850 nM
